Publication PMC4643373

Target: FMRP RGG box (UniProt Q06787 527-554)
Test: EMSA

## GGGUACGGGAGGGUAAGGCUGUGGGUCGCGUG (structured_RNA) [NR2B mRNA (32 nt)]
  binding result: binds
